Measured values: paper PMC10613257, “Cryo-EM structure of human PAPP-A2 and mechanism of substrate recognition” (Communications Chemistry, 2023)

Biological target: the molecule itself
Assay: SEC; Superose 6 Increase 10/300 in 1X PBS

B1: Pregnancy-Associated Plasma Protein A (PAPP-A), wild type (enzyme, UniProt Q13219 82-1627, looked up)
chain: EARGATEEPSPPSRALYFSGRGEQLRLRADLELPRDAFTLQVWLRAEGGQRSPAVITGLYDKCSYISRDRGWVVGIHTISDQDNKDPRYFFSLKTDRARQVTTINAHRSYLPGQWVYLAATYDGQFMKLYVNGAQVATSGEQVGGIFSPLTQKCKVLMLGGSALNHNYRGYIEHFSLWKVARTQREILSDMETHGAHTALPQLLLQENWDNVKHAWSPMKDGSSPKVEFSNAHGFLLDTSLEPPLCGQTLCDNTEVIASYNQLSSFRQPKVVRYRVVNLYEDDHKNPTVTREQVDFQHHQLAEAFKQYNISWELDVLEVSNSSLRRRLILANCDISKIGDENCDPECNHTLTGHDGGDCRHLRHPAFVKKQHNGVCDMDCNYERFNFDGGECCDPEITNVTQTCFDPDSPHRAYLDVNELKNILKLDGSTHLNIFFAKSSEEELAGVATWPWDKEALMHLGGIVLNPSFYGMPGHTHTMIHEIGHSLGLYHVFRGISEIQSCSDPCMETEPSFETGDLCNDTNPAPKHKSCGDPGPGNDTCGFHSFFNTPYNNFMSYADDDCTDSFTPNQVARMHCYLDLVYQGWQPSRKPAPVALAPQVLGHTTDSVTLEWFPPIDGHFFERELGSACHLCLEGRILVQYASNASSPMPCSPSGHWSPREAEGHPDVEQPCKSSVRTWSPNSAVNPHTVPPACPEPQGCYLELEFLYPLVPESLTIWVTFVSTDWDSSGAVNDIKLLAVSGKNISLGPQNVFCDVPLTIRLWDVGEEVYGIQIYTLDEHLEIDAAMLTSTADTPLCLQCKPLKYKVVRDPPLQMDVASILHLNRKFVDMDLNLGSVYQYWVITISGTEESEPSPAVTYIHGSGYCGDGIIQKDQGEQCDDMNKINGDGCSLFCRQEVSFNCIDEPSRCYFHDGDGVCEEFEQKTSIKDCGVYTPQGFLDQWASNASVSHQDQQCPGWVIIGQPAASQVCRTKVIDLSEGISQHAWYPCTISYPYSQLAQTTFWLRAYFSQPMVAAAVIVHLVTDGTYYGDQKQETISVQLLDTKDQSHDLGLHVLSCRNNPLIIPVVHDLSQPFYHSQAVRVSFSSPLVAISGVALRSFDNFDPVTLSSCQRGETYSPAEQSCVHFACEKTDCPELAVENASLNCSSSDRYHGAQCTVSCRTGYVLQIRRDDELIKSQTGPSVTVTCTEGKWNKQVACEPVDCSIPDHHQVYAASFSCPEGTTFGSQCSFQCRHPAQLKGNNSLLTCMEDGLWSFPEALCELMCLAPPPVPNADLQTARCRENKHKVGSFCKYKCKPGYHVPGSSRKSKKRAFKTQCTQDGSWQEGACVPVTCDPPPPKFHGLYQCTNGFQFNSECRIKCEDSDASQGLGSNVIHCRKDGTWNGSFHVCQEMQGQCSVPNELNSNLKLQCPDGYAIGSECATSCLDHNSESIILPMNVTVRDIPHWLNPTRVERVVCTAGLKWYPHPALIHCVKGCEPFMGDNYCDAINNRAFCNYDGGDCCTSTVKTKKVTPFPMSCDLQGDCACRDPQAQEHSRKDLRGYSHG
notes: PAPP-A, mature form of 1547 amino acids after processing of the pro-peptide. numbers count on: the mature protein; also called FL PAPP-A; dimeric PAPP-A; source: Expi293F, secreted into the culture medium, purified (anti-FLAG, Superose 6 SEC)
Q: With B1 as the protein, how does the “stoichiometry N” value read?
A: 2
